# According to article PMC10511499:
# Biological target: human dynein complex, wild type (tagged IC2C with the dynein subunits of 293 cells) (told two ways: 'Rat IC2C' (methods), human (results, legend) | human (endogenous in Flp-In T-REx 293 cells)) (UniProt Q14204)
# Experiment: TIRF microscopy microtubule recruitment assay; mammalian proteins; dynein or DDB on biotin-microtubules, SRP90 assay buffer with 2 mM AMP-PNP, 10 min; apparent affinity
substance,measurement,value
human dynactin p150-CC1 (residues 224-554) (from UniProt Q14203-1 224-554) (domain or fragment),fold greater apparent affinity than Ndel1,6 fold
